{"source": "the RNAGym collection of RNA variant scans (doi:10.1073/pnas.2313332121)", "parents": {"B1": {"name": "TPR 5TU (parent)", "chain": "GGAUCUUCUCGAUCUAACAAAAAAGACAAAUCUGCCACAAAGCUUGAGAGCAUCUUCGGAUGCAGAGGCGGCAGCCUUCGGUGGCGCGAUAGCGCCAACGUUCUCAACUAUGACACGCAAAACGCGUGCUCCGUUGAAUGGAGUUUAUCAUG"}}, "note": "Fewer inactive variants are shown than the library holds.", "data": [{"variants_of": "B1", "assay": "polymerase ribozyme fitness, log enrichment relative to wild type (log ratio); higher = more active; in vitro selection for triplet polymerase activity", "summary_of_the_method": "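After PCR construction and transcription, each subunit's mutant library from a heterodimeric triplet polymerase ribozyme was annealed with a biotinylated primer, the partner subunit and triplets. Incubation was frozen, at −7 °C, and extended constructs were gel-excised, bound to streptavidin beads and amplified by RT-PCR, in one selection round done in triplicate. Fitness is the logarithm of a genotype's enrichment divided by that of the wild type, from inverse-variance-weighted replicate averages of Illumina-sequenced inputs and outputs. The base of the logarithm is 2, and genotypes needed ≥10 input reads and ≥1 read per output.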", "values": [{"variant": "GGAUCUUCUCGAUCUAACAAAAAAGACUAAUCUGCCACAAAGCUUGAGAGCAUCUUCGGAUGCAGAGGCGGCAGCCUUCGGUGGCGCGAUAGCGCCAAAGUUCUCAACUAUGACACGCAAAACGCGUGCUCCGUUGAAUGGAGUUUAUCAUG", "polymerase ribozyme fitness (log ratio)": -4.15}, {"variant": "GGAUCUUCUCGAUCUAACAAAAAAGACUAAUCUGCCACAAAGCUUGAGAGCAUUUUCGGAUGCAGAGGCGGCAGCCUUCGGUGGCGCGAUAGCGCCAACGUUCUCAACUAUGACACGCAAAACGCGUGCUCCGUUGAAUGGAGUUUAUCAUG", "polymerase ribozyme fitness (log ratio)": -3.76}, {"variant": "GGAUCUUCUCGAUCUAACAAAAAAGACUAAUCUGCCACAAACCCUGAGAGCAUCUUCGGAUGCAGAGGCGGCAGGCUUCGGUGGCGCGAUAGCGCAAACGUUCUCAACUAUGACGCGCAAAACGCGUGCUCCGUUGAAUGGAGUUUAUCAUG", "polymerase ribozyme fitness (log ratio)": "≤ -4.2"}, {"variant": "GGAUCUUCUCGAUCUAACAAAAAAGACUAAUCUGCCACAAAGCUUGAGACCAUCUUCGGAUGCAGAGGCGGCAGCUUUCGGUGGUGCGAUAGCGCCAACGUUAUCAACUAUGACACGUAAAACGCGUGCUCCGUUGAAUGGAGGUUAUCAUG", "polymerase ribozyme fitness (log ratio)": "≤ -4.2"}, {"variant": "GGAUCUUCUCGAUCUAACAAAAAAGACUAAUCUGCCACAAAGCUUGAGAACAUCCUCGGAUGCAGAGGCGGCAGCCUUCGGUGGCGCGAUAGCGCCAACGUUCUCAACUAUGACACGCAAAACGCGUGCUCCGUUGAAGGGAGUUUAUCAUG", "polymerase ribozyme fitness (log ratio)": "≤ -4.2"}, {"variant": "GGAUCUUCUCGAUCUAACAAAAAAGACUAAUCUGCCACAAAGCUUGAGAGCAUCUUUGGAUGCAGAGGCGGCAGCCUUCGGUGUCGCGAUAGCACCAUCGUUCUCAACUAUGACAAGCAAAACGCGUGCUCCGUUGAAUGGAGUUUCUCAUG", "polymerase ribozyme fitness (log ratio)": "≤ -4.2"}, {"variant": "GGAUCUUCUCGAUCUAACAAAAAAGACUAAUCUGCCACAAAGCUUGAGAGCAUCUUCGGAUACAAAGGCGGCAGCCUUCGGUGGCGCGAUAGCACCAACGUUCUCAACUAUGACACGCAAAACGCGUGCUCCGUUAAAUGGAGUUUAUCAUG", "polymerase ribozyme fitness (log ratio)": "≤ -4.2"}, {"variant": "GGAUCUUCUCGAUCUAACAAAAAAGACUAAUCUGCCACAAAGCUUGAGAUCAUCUUCGAAUGCAGAGGCGGCAGCCUUCGGUGGCGCGAUAGCGCCAACGUUCUCAACUAUGACACGCAAAACGCGUGCUCCGUUGAAUGGAGUUUAUCAUG", "polymerase ribozyme fitness (log ratio)": "≤ -4.2"}, {"variant": "GGAUCUUCUCGAUCUAACAAAAAAGACUAAUCUGCCACAAAGCUUGAGAGCAUGUUCGGAUGCAGAGGCGGUAGCCUUCGGUGGCGCGAUAGCGCCAACGUUCUCAACUAUGACACGCAAAACGCGUGCUCCGUUGAAUGGAGUUUAUCAUG", "polymerase ribozyme fitness (log ratio)": "≤ -4.2"}, {"variant": "GGAUCUUCUCGAUCUAACAAAAAAGACUAAUCUGCCACAAAGCUUGAGAGCAUCUUCGGAUGCAGAGGCGGCAGCCUUCAGUGGCGCGAUUGCGCCAACGUUCUCAACUAUGACACGCAAAACGCGUGCUCCGUUGAAUGGAGUUUAUCAUG", "polymerase ribozyme fitness (log ratio)": "≤ -4.2"}, {"variant": "GGAUCUUCUCGAUCUAACAAAAAAGACUAAUCUGCCACAAAGCUUGAGAGCAUUUUCGGAUGUAGAGGCGUCAGCCUUCGGUGGCGCGAUAGCGCCAACGUUCUCAAUUAUGAUACGCAAAACGCGUGCUCCGUUGUAGGGAGUUUAUCGUG", "polymerase ribozyme fitness (log ratio)": "≤ -4.2"}, {"variant": "GGAUCUUCUCGAUCUAACAAAAAAGACUAAUCUGCCACAAAGCUUGAGAACAUCUUCGGAUGCAGAGGCGGCAGCCUUCGGUGGGGCGAUAGCGCCAACGUUCUCAACUAUGACACGCAAAACGCGUGCUCCGUUGAAUGGAGUUUAUCAUG", "polymerase ribozyme fitness (log ratio)": "≤ -4.2"}, {"variant": "GGAUCUUCUCGAUCUAACAAAAAAGACUAAUCUGCCACAAACCUUGAGAGCCUCUUCGGAUGCAGAGGCGGCAGCCUUCGGUGGCGCGAUAGCGCCAACCUUCUCAACUAUGACACCCAAAACGCGUGCUCCGUUGAAUGGAGUUUAUCAUG", "polymerase ribozyme fitness (log ratio)": "≤ -4.2"}, {"variant": "GGAUCUUCUCGAUCUAACAAAAAAGACUAAUCUGCCACAAAGCUUGAGAGCAUCUUCGGAUGCAGAGGCGGCAGCCUUCGGUGGCGUGAUAGCGCCAACGUUCUCAACUAUGACACGCCAAACGCGUGCUCCGUUGAUUCGAGUUUAUCAUG", "polymerase ribozyme fitness (log ratio)": "≤ -4.2"}, {"variant": "GGAUCUUCUCGAUCUAACAAAAAAGACUAAUGUGCCACAAUGCUUGAGAGCAUCUUCGGAUGCAGAGGCGGCGGCCUUCGGUGGGGCUAUAGCGCCAACGUUCUCAACUAUGACACGCAAAACGCGUGCUCCGUUAAAUGGAGUUUAUCAUG", "polymerase ribozyme fitness (log ratio)": "≤ -4.2"}, {"variant": "GGAUCUUCUCGAUCUAACAAAAAAGACUAAUCUGCCACAAAGCUUGAGAGCAUCUUCGGAUGCAGAGGCGGUAGCCUUCGGUGGCGCGAUAGCGCCAACGUUCUCAACUAUGACACGCAAAACGCGUGCUCCGUUGAAUGGAGUUUAUCAUG", "polymerase ribozyme fitness (log ratio)": "≤ -4.2"}, {"variant": "GGAUCUUCUCGAUCUAACAAAAAAGACUAAUCUGCCACAAAGCUUGAAAGCAUCUUCGGAUGCAGAGGCGGCACCCUUCGGUGGCGCGAUAGCGCUAACGUUCUCAACUAUGACACGCAAAACGCGUGCUACGUUGAAUGGAGUUUAUCAUG", "polymerase ribozyme fitness (log ratio)": "≤ -4.2"}, {"variant": "GGAUCUUCUCGAUCUAACAAAAAAGACUAAUCUGCCACAAAGCUUGAUAGCAUCUUCGGAUGCAGAGGCGGCAGCCUUCGGUGGCGCGAUAGCGCCAACGUUCUCAACUAUGACACGCAAAACGCGUGCUCCGUUGAAUGGAGUUUAUCAUG", "polymerase ribozyme fitness (log ratio)": "≤ -4.2"}, {"variant": "GGAUCUUCUCGAUCUAACAAAAAAGACUAAUCUGCCACAAAGCUUGAGAGCAUCUUCGGAUGCAGAGGCGGCAGUCUUCGGUGUCACGAUAGUGCCAACGUUCUCGACUAUGUCACGCAAAACGCGUGCUCCGUUGAAUGGAGUUUAUCAUG", "polymerase ribozyme fitness (log ratio)": "≤ -4.2"}]}]}
